Reference: patent publication US20180022822A1, “NOVEL ANTI-FIBROBLAST ACTIVATION PROTEIN (FAP) BINDING AGENTS AND USES THEREOF” (Mabimmune Diagnostics AG, priority 2016, published 2018)

Experiments:
[1] = molecular target: T1, active recombinant mouse FAP (Mus musculus, UniProt P97321); test: DQ-gelatin cleavage inhibition, active recombinant mouse FAP; assay type: biochemical
T1 construct: expressed in a HEK293 cell line without the transmembrane and intracellular domains and an N-terminal 6× histidine tag; made in house; host or cells: HEK293
T1 sequence (P97321 26-761 limits assumed): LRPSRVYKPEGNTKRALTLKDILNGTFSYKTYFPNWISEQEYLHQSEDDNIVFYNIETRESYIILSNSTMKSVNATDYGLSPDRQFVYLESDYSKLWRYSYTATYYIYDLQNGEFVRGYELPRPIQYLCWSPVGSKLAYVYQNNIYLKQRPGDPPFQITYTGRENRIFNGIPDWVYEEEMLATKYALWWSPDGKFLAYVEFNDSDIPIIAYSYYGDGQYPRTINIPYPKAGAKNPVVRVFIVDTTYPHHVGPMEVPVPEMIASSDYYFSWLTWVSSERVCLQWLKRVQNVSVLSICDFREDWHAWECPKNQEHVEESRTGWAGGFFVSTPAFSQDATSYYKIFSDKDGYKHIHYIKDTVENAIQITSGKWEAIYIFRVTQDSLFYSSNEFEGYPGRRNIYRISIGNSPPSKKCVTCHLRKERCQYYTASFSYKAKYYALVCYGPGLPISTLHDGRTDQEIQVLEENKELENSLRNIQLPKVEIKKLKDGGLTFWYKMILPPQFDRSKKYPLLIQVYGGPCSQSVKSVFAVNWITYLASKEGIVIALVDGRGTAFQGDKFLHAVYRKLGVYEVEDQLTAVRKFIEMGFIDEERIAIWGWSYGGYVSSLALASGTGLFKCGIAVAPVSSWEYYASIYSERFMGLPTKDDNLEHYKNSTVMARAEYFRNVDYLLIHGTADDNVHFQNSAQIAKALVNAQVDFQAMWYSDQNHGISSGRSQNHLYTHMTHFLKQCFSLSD
Experimental: To determine the inhibitory ability of NI-206.82C2 against active recombinant murine FAP, recombinant murine FAP was expressed in a HEK293 cell line without the transmembrane and intracellular domains and an N-terminal 6× histidine tag. A 96-well ELISA plate was then coated with 50 uL of murine anti-His tag antibody at 6 μg/mL in PBS overnight at 4° C. The wells were then blocked with 60 μL of 2% BSA in PBS for 1 h at room temperature, and 50 μL of recombinant mouse FAP containing cell culture supernatant diluted 1:4 was added to the well and incubated overnight at 4C while gently shaking. Following three washing steps with PBS, 20 uL of sterile 12.5% BSA/PBS solution was added to all wells.

[2] = system: human breast cancer tissue sections; test: immunohistochemistry on human breast cancer tissue sections; details: chimeric form with murine constant domain, 10 μg/mL, DAB
Experimental: Human breast cancer tissue sections were allowed to dry for 10 min at room temperature, and then fixed for 15 minutes in 4% paraformaldahyde, followed by washing three times 5 minutes in PBS. Slides were then incubated for 5 min in 0.3% H2O2 in PBS to block endogenous peroxidase activity, and subsequently washed 3 times 5 min in PBS. Endogenous biotin was then blocked using the Biotin-Blocking System (DAKO X0590), followed by times washing with PBS. Blocking of unspecific antibody binding and permeabilization of the tissue section was performed using blocking buffer (5% goat serum, 5% horse serum, 0.3M glycine, 5% BSA, and 0.5% Triton X100 in PBS). Tissue sections were then stained with a recombinantly engineered chimeric form of NI-206.82C2 with a murine constant domain and the human variable domain of the original antibody and a matched isotype control (43A11) at 10 μg/mL in permeabilization buffer overnight at 4° C. Following three PBS washing steps, the sections were incubated with a biotinylated goat anti-mouse antibody for 1 h at room temperature. For amplifying the target antigen the VECTASTAIN ABC kit (Vector Labs) was used, followed by development with 3,3′-diaminobenzidine (DAB) and counterstained with Mayer's haematoxylin blue. […]

B1: NI-206.82C2: human-derived recombinant anti-FAP antibody; VH SEQ ID NO: 2 or 4 (PIMC), VL SEQ ID NO: 6 (antibody, V domains shown)
VH: QVQLQQSGPGLVKPSQTLSLTCAISGDSVSSNSVTWNWIRQSPSRGLEWLGRTYYRSKWYNDYAVSVKGRITINPDTSKNQFYLQLKSVTPEDAAVYYCARDSSILYGDYWGQGTLVTVSS
VL: QAVLTQPSSLSASPGASASLTCTLPSGINVGTYRIFWFQQKPGSPPQYLLSYKSDSDNHQGSGVPSRFSGSKDASANAGILLISGLQSEDEADYYCMIWHSSAWVFGGGTKLTVL
For B1, the “potency for inhibiting active recombinant mouse FAP compared to Val-boro-Pro and F19” value [1] was “higher potency”, the “staining of human ductal carcinoma in-situ tissue” value [2] was “Positive staining” and the “staining of human invasive ductal carcinoma tissue” value [2] was “Positive staining”.
